{
  "source": "patent US10919943B2",
  "about": "“Mutant proteins enabling agrochemical control of plant gene expression” (The Regents of the University of California, priority 2016, dated 2021)",
  "molecules": {"B1": {"name": "HAB1*: catalytically inactive orthogonal pentuple HAB1 mutant (protein, listed as Arabidopsis thaliana)", "chain": "MTPAVAMTLSLAANTMCESSPVEITQLKNVTDAADLLSDSENQSFCNGGTECTMEDVSELEEVGEQDLLKTLSDTRSGSSNVFDEDDVLSVVEDNSAVISEGLLVVDAGSELSLSNTAMEIDNGRVLATAIIVGESSIEQVPTAEVLIAGVNQDTNTSEVVIRLPDENSNHLVKGRSVYELDCIPLWGTVSIQGNASEMEAAFAVSPHFLKLPIKMLMGDHEGMSPSLTHLTGHFFGVYDGHGGHKVADYCRDRLHFALAEEIERIKDELCKRNTGEGRQVQWDKVFTSCFLTVDGEIEGKIGRAVVGSSDKVLEAVADETVGSTAVVALVCSSHIVVSNCGDSRAVLFRGKEAMPLSVDHKPDREDEYARIENAGGKVIQWQGARVFGRLAMSRSIGDRYLKPYVIPEPEVTFMPRSREDECLILASDGLWDVMNNQEVCEIARRRILMWHKKNGAPPLAERGKGIDPACQAAADYLSMLALQKGSKDNISIIVIDLKAQAKFKTRT"}},
  "key": {"[1]": {"target": "T1, PYR1*^-MANDI (Arabidopsis thaliana, UniProt O49686, A160V/F108A/F159V/K59R/M158I/S122G/T162D/V81I/Y58H)", "T1 construct": "expressed in transfected cells; host or cells: S. cerevisiae strain MAV99 (selection)", "T1 sequence (O49686 1-191 Y58H/K59R/V81I/F108A/S122G/M158I/F159V/A160V/T162D)": "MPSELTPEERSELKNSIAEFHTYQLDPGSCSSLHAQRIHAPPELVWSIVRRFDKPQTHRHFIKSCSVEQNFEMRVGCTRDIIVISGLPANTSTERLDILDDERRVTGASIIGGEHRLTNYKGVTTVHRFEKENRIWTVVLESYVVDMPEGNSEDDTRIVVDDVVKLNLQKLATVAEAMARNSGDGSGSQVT", "T1 sequence (Q9CAJ0 4-511 R199A/D204A/S322D/V393R/R505A partner)": "B1 chain", "assay": "Yeast two hybrid, mandipropamid-induced interaction of HAB1 variants with pBD-PYR1*^-MANDI", "format": "cell-based", "settings": "FIG. 6", "description": "To investigate the effects of overexpressing HAB1^!-2 in Arabidopsis, we used Agrobacterium mediated transformation to generate 35S::GFP-HAB1^!-2 transgenic plants. HAB1^!-2 was cloned from pACT-HAB1^!-2 into pEGAD, a binary vector suitable for plant transformation, generating a 35S-driven GFP-HAB1^!-2 fusion protein. The clone was transformed into Agrobacterium and the floral dip method used to transform Arabidopsis. After selection of T0 seed on soil containing glufosinate, several T1 seedlings were identified. […] As an alternate strategy, we eliminated HAB1's catalytic activity by introducing a mutation in a conserved metal-ion binding residue (D204), which is homologous to D131A mutation in ABI1, previously shown to eliminate phosphatase activity without disrupting wild type receptor-ABI1 interactions (Liang et al., 2011). We used QuickChange mutagenesis to introduce the D204A mutation into pACT-HAB1^!-2, generating pACT-HAB1^!-3. When tested for mandipropamid induced interactions with pBD-PYR1*^-MANDI, HAB1^!-3 is ˜10-fold less sensitive to mandipropamid relative to HAB1^!-2 (FIG. 5).\nD204 is located within HAB1's catalytic active site and binds to one of 3 catalytic Mg^++ ions that participate in catalysis. […] It is likely that disruptions to active site structure introduced by D204A destabilize the PYR1*^-MANDI/HAB1^!-3 interaction relative to HAB1^!-2. We reasoned that suppressor mutations in other HAB1 interface or active site residues could restore sensitivity by strengthening interactions with PYR1*^-MANDI. To identify such suppressors, we mutagenized the pACT-HAB1^!-3 template using NNK mutagenesis in 28 residues located with at the PYR1 binding interface. The residues targeted were: R199, S200, E201, E203, D243, G244, H245, G246, G247, S322, E323, T324, D346, K365, K381, 1383, Q384, W385, Q386, R389, F391, G392, Y404, S431, G433, D436, D492 and N394. The pACT-HAB1^!-3 template was mutagenized in 28 separate NNK mutagenesis reactions using the QuickChange protocol. Mini-libraries, each containing ˜1000 clones, were made for each NNK reaction and plasmid DNA for the 28 mutations prepared, pooled, and then transformed into S. cerevisiae strain MAV99 co-transformed with pBD-PYR1*^-MANDI, and then plated onto selective SD(-Leu,-Trp,-Ura) agar media supplemented with 500 nM mandipropamid. […] S322D and R199A were combined using the Lightning Multi-site Mutagenesis™ (Agilent, USA) method, and the resultant pentuple mutant tested in combination with pBD-PYR1*^-MANDI for sensitivity to mandipropamid using β-galactosidase assays."}, "[2]": {"target": "T2, wild type PYR1 (Arabidopsis thaliana, UniProt O49686)", "T2 construct": "made in house; host or cells: E. coli BL21 [DE3]pLysS", "T2 sequence (O49686 1-191)": "T1 sequence (O49686 1-191 Y58H/K59R/V81I/F108A/S122G/M158I/F159V/A160V/T162D) with H58Y, R59K, I81V, A108F, G122S, I158M, V159F, V160A, D162T", "assay": "In vitro pull down assay with recombinant 6×-His receptor and GST-PP2C", "format": "binding", "settings": "FIG. 8", "description": "To characterize the orthogonal orthogonal module biochemically, we produced recombinant forms of 6×-His-PYR1*^-MANDI, 6×-His-PYR1, GST-HAB1*, and GST-HAB1 in E. coli, as described above, and tested wild type and orthogonal receptors for their ability to inhibit GST-HAB1 activity in vitro, as well as their physical interactions with one another using pull-down assays. To characterize PYR1*^-MANDI and HAB1* in vitro, we cloned PYR1*^-MANDI into pET28 to generate a 6×-His tagged receptor and cloned HAB1* into pGEX-4T-1 to create a GST-fusion protein. Recombinant 6×-His-PYR1*^-MANDI and GST-HAB1* were prepared, as described above in example 1C, and used in experiments with previously prepared 6×-His-PYR1 and GST-HAB1. To conduct pull down assays, the specified recombinant receptor and PP2C (20 and 140 μg respectively), were combined in 500 μl PP2C assay buffer (100 mM Tris-HCl (pH 7.9), 100 mM NaCl, 1 mM MnCl2, 1% 13-ME and 0.3% BSA) containing either 10 μM ABA, 10 μM mandipropamid or 1% DMSO carrier solvent as a negative control. The final protein concentrations in the reactions are 1.6 μM receptor and 3.4 μM PP2C. The reactions were incubated for 90 minutes at room temperature (RT) and 20 μl of PrepEase (USB) His-tagged protein purification resin (20 mg) was added. The resin and reaction mixtures were incubated for 30 minutes at RT with gentle shaking at 5 minute intervals. The resin was washed five times and 100 μl of SDS-PAGE buffer was added and boiled for 5 minutes. After centrifugation 20 μl of supernatant was analyzed by SDS-PAGE."}},
  "note": "Positions count from the first letter of the chain named.",
  "data": [
    {"molecule": "B1", "values": [
      {"measurement": "mandipropamid sensitivity for binding to pBD-PYR1*^-MANDI", "setting": "[1]", "value": "nM sensitivity"},
      {"measurement": "binding to wild type PYR1", "setting": "[2]; 10 μM ABA", "value": "does not bind"},
      {"measurement": "binding to wild type PYR1", "setting": "[2]; 10 μM mandipropamid", "value": "does not bind"}
    ]}
  ]
}
